Columns and labels:
[1] = test system: TKCC05 cells and normal human pancreatic stellate cells; test: Co-culture assay of TKCC05 cells and normal human pancreatic stellate cells; assay type: cell-based
Protocol: For survival assays, cells (5,000/well) were plated in 96-well plates and allowed to attach for 24 h. Cells were then treated for 24 h with 10D7 (5 μg/ml) or isotype control IgG (5 μg/ml) before addition of gemcitabine (0.02 to 500 nM) and incubation for another 72 h. In assays assessing the effect of cytotoxin-conjugated antibodies, cells were treated for 12 h with 10D7-MMAE, IgG-MMAE, 10D7 or IgG (0.0625 to 1.0 μg/ml) then washed before the media was replaced with standard growth medium for 72 h. The relative number of viable cells was then measured by adding the CellTiter AQueous One Solution Reagent to each well and measuring absorbance at 490 nm as described above. In co-culture assays, mKO2 expressing TKCC05 PDAC cells (2,000 cells/well) were co-cultured with GFP expressing normal human pancreatic stellate cells (2,000 cells/well) for 24 h in a 1:1 mixture of TKCC05 and hPSC growth medium before treatments with 10D7-MMAE, IgG-MMAE, 10D7 or IgG (0.0625 to 1.0 μg/ml), IgG or 10D7 (1 μg/ml) or PBS as above. Cells were imaged by wide-field fluorescence microscopy and the total area of confluence for each cell type was quantified by image analysis using Image J software.
The generated antibody-drug conjugate (ADC), 10D7-MMAE, has an average drug-antibody ratio (DAR) of 4.5 to 4.7, and retains the functional ability to induce phosphorylation of CDCP1 and Src (see Example 7). […]

[2] = test system: OVMZ6-CDCP1 cells; test: Colony formation assay, OVMZ6-CDCP1 cells; assay type: cell-based, human
Protocol: (§1) MMAE-conjugated 10D7 and IgG1K were prepared as described (Nielsen C F, et al., (2017) Oncotarget. 8(27):44605-24.53) and drug-antibody ratio (DAR) determined by reverse phase LC/MS as reported (Basa L. et al., (2013) Methods Mol Biol. 1045:285-93.) on an ABSCIEX Triple TOF spectrometer (AB SCIEX Framingham, Mass.) coupled to a Shimadzu Nexera 1D UHPLC system (Shimadzu, Rydalmere, Australia). ADC peak identification was performed as reported with DAR determined by peak area integration (Hamblett K J, et al., (2004) Clin Cancer Res. 10(20):7063-70; Yao X, et al., (2015) Breast Cancer Res Treat. 153(1):123-33). Colony-formation assays were performed as described (Crowley L C, et al., (2016) Cold Spring Harb Protoc. 2016(8):pdb.prot087171) on cells (100,000/ml) treated with the indicated concentrations of 10D7, 10D7-MMAE, IgG or IgG-MMAE overnight before being lifted and replated in 24-well plates (200 cells/well). After a defined growth period media was removed and cells gently PBS washed before staining with 0.1% crystal violet (Sigma-Aldrich) in 2% ethanol. After 20 minutes and stained cells were scanned (700 nm) on a LiCOR System (Odyssey V3.0 software) with images analyzed using the ColonyArea ImageJ plugin to quantify colony area and intensity (Guzmán C, et al., (2014) PLoS One. 9(3):e92444.). […]

[3] = test system: TKCC10 cells; test: Survival assay with cytotoxin-conjugated antibodies, TKCC10; assay type: cell-based, human; settings: TKCC10, 1 μg/ml, 12 h treatment then 72 h growth
Protocol: (§2) The relative number of viable cells was then measured by adding the CellTiter AQueous One Solution Reagent to each well and measuring absorbance at 490 nm as described above. […] Cells were imaged by wide-field fluorescence microscopy and the total area of confluence for each cell type was quantified by image analysis using Image J software.

[4] = test system: HEY cells; test: Colony formation assay, HEY cells; assay type: cell-based, human
Protocol: as §1

[5] = test system: OVMZ6 cells; test: Colony formation assay, OVMZ6 cells; assay type: cell-based, human; settings: even at the highest concentration
Protocol: as §1

[6] = test system: TKCC02 cells; test: Survival assay with cytotoxin-conjugated antibodies, TKCC02; assay type: cell-based, human; settings: TKCC02, 1 μg/ml, 12 h treatment then 72 h growth
Protocol: as §2

[7] = test system: TKCC2.1 cells xenografts; test: Pancreatic cancer subcutaneous xenograft, MMAE-labelled 10D7 and chimeric 10D7; settings: 125 μg iv, treated twice
Protocol: Pancreatic cancer cells (TKCC2.1 cells, 1×10^6 cells) were grafted subcutaneously in NSG mice. After 4 weeks, mice were randomized into 5 groups (10 mice per group) and treated with: PBS (iv, 125 μl fortnightly), IgG-MMAE (iv, 125 μg diluted in 125 μl PBS), 10D7-MMAE (iv, 125 μg diluted in 125 μl PBS), Chim hu/mu-10D7-MMAE (iv, 125 μg diluted in 125 μl PBS) or Gemcitabine (ip, 100 mg/kg in PBS weekly).
Mice were euthanized when one ethical end point was reached (either tumour size or excessive signs of distress).

B1: 10D7-MMAE (conjugate)
VH: EVQLQQFGAELVKPGASVKISCKASGYSFSDFNIEWLKQSHGKSLEWIGDINPNYDSTNYNQKFKGRATLTVDKSSSTAYMEVRSLTSEDTAVYYCARLGYGYAMDYWGQGTSVTVSS
VL: NIVMTQSPQSMSMSVGERVTLSCKASENVGAYVSWFQQKPDQSPKLLILAASNRYTGVPARFIGSGSATDFTLTISSVQAEDLADYHCGQSYTYPYTFGGGTKLEIKRADAAPTVS
For B1, the “response of TKCC05 cells” value ([1]; CDCP1 expressing cells) was “very sensitive”, the “response of normal human pancreatic stellate cells” value ([1]; CDCP1 non-expressing cells) was “unresponsive” and the “half maximum dose required to block colony formation” value [2] was ~0.07 µg/mL. The survival of cells [3] was “about 50%”, the “half maximum dose required to block colony formation” value [4] was “approximately 0.2 μg/ml” and the colony formation [5] was “unaffected”. The survival of cells [6] was “about 25%”, the “reduction of pancreatic tumour volume” value [7] was “superior to gemcitabine” and the survival of mice [7] was “prolonged”.

— patent US20220389113A1, “BINDING PROTEINS TO CUB DOMAIN-CONTAINING PROTEIN (CDCP1)” (COMMONWEALTH SCIENTIFIC AND INDUSTRIAL RESEARCH ORGANISATION, priority 2019, published 2022)
